In patent US20140294977A1, “Radiation-Sterilized Biodegradable Drug Delivery Composition” (DURECT CORPORATION, priority 2011, published 2014):

Assay: Gamma-radiation stability of hGH:protamine powders and SAIB/BB/PLA suspensions by RPLC
Assay type: physicochemical
Settings: after gamma irradiation at 15 kGy
Method: Aliquots of 3 mL each of the bulk hGH solution in buffer from BresaGen were transferred into 5 mL type-Hypak BD glass syringes and lyophilized using the lyophilization cycle provided in Table 1 (optimized for hGH) to fit the steps provided with an FTS lyophilizer, Dura Stop, MP Stoppering Tray Dryer, Stone Ridge, N.Y.
100 mg of BresaGen hGH powder was placed in a 15 mL wide-mouth glass jar. 5.5 mL of 25 mM NH4HCO3 (pH ˜7.5) solution was added and the compound was stirred for 30 min at room temperature, 400 rpm until it became clear. Then 1.02 mL of protamine sulfate solution (conc. 10 mg/mL) was slowly added to form a white precipitate. The resulting suspension was stirred for 30 min to complete the complexation reaction. 0.19 mL of 290 mM sucrose solution was then added while stirring at 400 rpm. When the solution was clear, 15.2 μL of 10% polysorbate 20 solution was added. In powders with methonine formulation, 1 wt %-35 wt % of methionine relative to the total protein weight was added to the complexed suspension. […]
Stability of the above formulations was determined using RPLC analysis. […]

With “control hGH powder: lyophilized human growth hormone powder (BresaGen) without complex, used as control” the “purity of hGH / impurity peaks in RPLC spectra (FIG. 1)” value was “showed an impurity peak around 8.15 min”.
